How the values were obtained:
[1] = biological target: LacI-mCherry-E1A(140–189) (human adenovirus 2) (UniProt P03254)
[2] = biological target: LacI-mCherry-E1A(121–223) (human adenovirus 2) (UniProt P03254); test: recruitment to a lacO array (colocalisation of a YFP fusion with a LacI-tethered fusion, confocal microscopy); CHO-A03.1 cells with ~10,000 integrated lacO sites, cotransfected with 2 ug LacI-CFP-E1A or LacI-mCherry-E1A vector and 2 ug YFP-MED6, YFP-MED23 or YFP-p300 vector; fixed after 48 h; score = % of scored cells with colocalisation
[3] = biological target: LacI-mCherry-E1A(140–205) (human adenovirus 2) (UniProt P03254); test: as above
[4] = biological target: LacI-mCherry-E1A(133–205) (human adenovirus 2) (UniProt P03254); test: as above
[5] = biological target: LacI-mCherry-E1A(133–178) (human adenovirus 2) (UniProt P03254); test: as above
[6] = biological target: LacI-mCherry-E1A(133–189) (human adenovirus 2) (UniProt P03254); test: as above

YFP-p300, Q09472 1-2414
luciferase reporter with eight lacO sites upstream of the E1B promoter, transient transfection of CHO-K1 cells; activity relative to LacI-mCherry-E1A(121–223) [1]: 10% | colocalization score (% of cells) [2]: 86% | colocalization score (% of cells) [3]: 64% | colocalization score (% of cells) [4]: 73% | colocalization score (% of cells) [5]: 64% | colocalization score (% of cells) [6]: 86%

From PMC6146688
